Target: the molecule itself
Assay: cross-linking; BS3 0.25 mM, 15 min at RT in PBS with 1 mM DTT, proteins mixed about 1:1; SDS-PAGE, anti-His and anti-GST Western blots

B1: ZFP106-f (residues 1265-1521 of ZFP106), His-tagged (domain or fragment, human, UniProt Q9H2Y7 1265-1521, looked up)
chain: KFSVEQRNTRNRENSPSSQSAGLSSINKEGEEPTKGNSGSEACTSSFLRLSFASETPLEKEPHSPADQPEQQAESTLTSAETRGSKKKKKLRKKKSLRAAHVPENSDTEQDVLTVKPVRKVKAGKLIKGGKVTTSTWEDSRTGREQESVRDEPDSDSSLEVLEIPNPQLEVVAIDSSESGEEKPDSPSKKDIWNSTEQNPLETSRSGCDEVSSTSEIGTRYKDGIPVSVAETQTVISSIKGSKNSSEISSEPGDDDE
notes: The His tag is named for the cross-linking and detected by anti-His blot there and in the acetylation assays; also called wt ZFP106-f; His-tagged ZFP106-f
For B1, the “stoichiometry N” value was 2.
